Data: the supplement of paper PMC9112550, “Optimization of the antimicrobial peptide Bac7 by deep mutational scanning” (BMC Biology, 2022)

Test system: Escherichia coli TOP10
Test: shrunken log2 fold change of peptide-encoding DNA abundance (4.5 h post-induction vs induction); higher = less antimicrobial activity (less host growth inhibition)
Conditions: time post-induction: 4.5 h; library: site-saturation at positions 5, 18, 19, 20
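Further: peptides expressed intracellularly from a pBAD plasmid library in pooled LB shake-flask culture, induced with 0.3% L-arabinose, DNA abundance read by NGS, three biological replicates, DESeq2 with apeglm shrinkage.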

Row | Sequence | shrunken log2 fold change
1 | RRIRSRPPRLPRPRPRPRQCPRP | 0.159
2 | RRIRKRPPRLPRPRPRPLTSPRP | 0.0205
3 | RRIRRRPPRLPRPRPRPVAFPRP | 0.383
4 | RRIRRRPPRLPRPRPRPHAWPRP | 0.438
5 | RRIRDRPPRLPRPRPRPMSTPRP | 0.0569
6 | RRIRLRPPRLPRPRPRPNRIPRP | -0.0157
7 | RRIRLRPPRLPRPRPRPAKMPRP | -0.169
8 | RRIRRRPPRLPRPRPRPDHLPRP | -0.0237
9 | RRIRTRPPRLPRPRPRPYMYPRP | -0.767
10 | RRIRKRPPRLPRPRPRPANEPRP | 0.151
11 | RRIRYRPPRLPRPRPRPIWSPRP | -0.0646
12 | RRIRARPPRLPRPRPRPAVKPRP | 0.233
13 | RRIRIRPPRLPRPRPRPQNIPRP | -1.22
14 | RRIRKRPPRLPRPRPRPKLMPRP | 0.267
15 | RRIRARPPRLPRPRPRPQETPRP | 0.0762
16 | RRIRVRPPRLPRPRPRPHLHPRP | -0.279
17 | RRIRERPPRLPRPRPRPKRNPRP | -0.114
18 | RRIRFRPPRLPRPRPRPNNGPRP | -0.151
19 | RRIRCRPPRLPRPRPRPHFYPRP | -0.305
20 | RRIRIRPPRLPRPRPRPQPLPRP | -0.371
21 | RRIRKRPPRLPRPRPRPLAQPRP | 0.801
22 | RRIRHRPPRLPRPRPRPGVQPRP | 0.00489
23 | RRIRSRPPRLPRPRPRPTWPPRP | 0.41

Row | Sequence | shrunken log2 fold change
24 | RRIRSRPPRLPRPRPRPCWPPRP | 0.42
25 | RRIRCRPPRLPRPRPRPCWQPRP | -0.0116
26 | RRIRIRPPRLPRPRPRPHPLPRP | -0.516
27 | RRIRSRPPRLPRPRPRPLWNPRP | -0.25
28 | RRIRDRPPRLPRPRPRPRFMPRP | -0.0192
29 | RRIRFRPPRLPRPRPRPVLPPRP | -0.371
30 | RRIRRRPPRLPRPRPRPDAIPRP | -0.0233
31 | RRIRDRPPRLPRPRPRPITWPRP | 0.098
32 | RRIRHRPPRLPRPRPRPDCRPRP | -0.0597
33 | RRIRYRPPRLPRPRPRPLSEPRP | -0.215
34 | RRIRERPPRLPRPRPRPTYTPRP | -0.756
35 | RRIRYRPPRLPRPRPRPTRGPRP | 0.543
36 | RRIRKRPPRLPRPRPRPNVKPRP | 0.0115
37 | RRIRGRPPRLPRPRPRPTEKPRP | 0.455
38 | RRIRIRPPRLPRPRPRPSSTPRP | -0.955
39 | RRIRCRPPRLPRPRPRPFGDPRP | -0.00748
40 | RRIRYRPPRLPRPRPRPTVLPRP | 0.00488
41 | RRIRGRPPRLPRPRPRPPPLPRP | 1.16
42 | RRIRERPPRLPRPRPRPPASPRP | 0.127
43 | RRIRCRPPRLPRPRPRPISIPRP | -0.443
44 | RRIRMRPPRLPRPRPRPDVIPRP | -0.0756
45 | RRIRIRPPRLPRPRPRPMAAPRP | 0.403
46 | RRIRCRPPRLPRPRPRPPCFPRP | 0.197

Row | Sequence | shrunken log2 fold change
47 | RRIRGRPPRLPRPRPRPNLYPRP | 0.0462
48 | RRIRSRPPRLPRPRPRPCKFPRP | -0.301
49 | RRIRSRPPRLPRPRPRPICTPRP | 0.166
50 | RRIRKRPPRLPRPRPRPSGGPRP | 0.255
51 | RRIRKRPPRLPRPRPRPMCVPRP | 0.208
52 | RRIRTRPPRLPRPRPRPDHRPRP | 0.0733
53 | RRIRTRPPRLPRPRPRPQLNPRP | -0.33
54 | RRIRCRPPRLPRPRPRPNEGPRP | -0.1
55 | RRIRKRPPRLPRPRPRPQGQPRP | -0.00726
56 | RRIRGRPPRLPRPRPRPEQQPRP | -0.0199
57 | RRIRLRPPRLPRPRPRPLQIPRP | -0.092
58 | RRIRQRPPRLPRPRPRPTLLPRP | -0.0944
59 | RRIRQRPPRLPRPRPRPKEIPRP | -0.223
60 | RRIRERPPRLPRPRPRPAQTPRP | 0.0281
61 | RRIRARPPRLPRPRPRPNGFPRP | 0.113
62 | RRIRYRPPRLPRPRPRPEPIPRP | -0.103
63 | RRIRQRPPRLPRPRPRPTIMPRP | -0.127
64 | RRIRARPPRLPRPRPRPKITPRP | -0.0367
65 | RRIRNRPPRLPRPRPRPSYGPRP | -0.156
66 | RRIRCRPPRLPRPRPRPTKRPRP | 0.0767
67 | RRIRNRPPRLPRPRPRPMAPPRP | -0.0631
68 | RRIRVRPPRLPRPRPRPYGGPRP | -0.374
69 | RRIRARPPRLPRPRPRPLNLPRP | 0.0866

Row | Sequence | shrunken log2 fold change
70 | RRIRWRPPRLPRPRPRPQYTPRP | -0.384
71 | RRIRFRPPRLPRPRPRPFPSPRP | -0.179
72 | RRIRNRPPRLPRPRPRPCFYPRP | -0.474
73 | RRIRERPPRLPRPRPRPRYLPRP | -0.452
74 | RRIRSRPPRLPRPRPRPNMGPRP | -0.351
75 | RRIRHRPPRLPRPRPRPFVPPRP | -0.455
76 | RRIRARPPRLPRPRPRPQDRPRP | -0.139
77 | RRIRMRPPRLPRPRPRPKPGPRP | 1.31
78 | RRIRGRPPRLPRPRPRPVNLPRP | -0.152
79 | RRIRERPPRLPRPRPRPPIPPRP | 0.281
80 | RRIRARPPRLPRPRPRPMERPRP | 0.0157
81 | RRIRSRPPRLPRPRPRPWRIPRP | -0.0443
82 | RRIRDRPPRLPRPRPRPQVFPRP | -0.101
83 | RRIRVRPPRLPRPRPRPDEKPRP | 0.11
84 | RRIRNRPPRLPRPRPRPGNVPRP | -0.107
85 | RRIRDRPPRLPRPRPRPEHVPRP | 0.212
86 | RRIRWRPPRLPRPRPRPEGWPRP | 1.39
87 | RRIRQRPPRLPRPRPRPKFPPRP | 0.118
88 | RRIRNRPPRLPRPRPRPDRKPRP | -0.00776
89 | RRIRMRPPRLPRPRPRPCPDPRP | -0.0886
90 | RRIRPRPPRLPRPRPRPKVTPRP | 0.0845
91 | RRIRLRPPRLPRPRPRPNGVPRP | 0.0191
